# Test results taken from publication PMC11669160, “Engineering an αCD206-synNotch Receptor: Insights into the Development of Novel Synthetic Receptors” (ACS Synthetic Biology, 2024).
# T1: mouse CD206 extracellular domain fused to a myc tag and the PDGFRβ transmembrane domain, displayed on MetBo2 … (Mus musculus (cDNA of IL-4 treated …))
# T1 construct: transmembrane domain of the human platelet-derived growth factor receptor (PDGFRβ); the methods name only myc; also called CD206 ECD; CD206 ECD construct; source: MetBo2 cells, transiently transfected (CMV promoter), on cells
# T1 chain: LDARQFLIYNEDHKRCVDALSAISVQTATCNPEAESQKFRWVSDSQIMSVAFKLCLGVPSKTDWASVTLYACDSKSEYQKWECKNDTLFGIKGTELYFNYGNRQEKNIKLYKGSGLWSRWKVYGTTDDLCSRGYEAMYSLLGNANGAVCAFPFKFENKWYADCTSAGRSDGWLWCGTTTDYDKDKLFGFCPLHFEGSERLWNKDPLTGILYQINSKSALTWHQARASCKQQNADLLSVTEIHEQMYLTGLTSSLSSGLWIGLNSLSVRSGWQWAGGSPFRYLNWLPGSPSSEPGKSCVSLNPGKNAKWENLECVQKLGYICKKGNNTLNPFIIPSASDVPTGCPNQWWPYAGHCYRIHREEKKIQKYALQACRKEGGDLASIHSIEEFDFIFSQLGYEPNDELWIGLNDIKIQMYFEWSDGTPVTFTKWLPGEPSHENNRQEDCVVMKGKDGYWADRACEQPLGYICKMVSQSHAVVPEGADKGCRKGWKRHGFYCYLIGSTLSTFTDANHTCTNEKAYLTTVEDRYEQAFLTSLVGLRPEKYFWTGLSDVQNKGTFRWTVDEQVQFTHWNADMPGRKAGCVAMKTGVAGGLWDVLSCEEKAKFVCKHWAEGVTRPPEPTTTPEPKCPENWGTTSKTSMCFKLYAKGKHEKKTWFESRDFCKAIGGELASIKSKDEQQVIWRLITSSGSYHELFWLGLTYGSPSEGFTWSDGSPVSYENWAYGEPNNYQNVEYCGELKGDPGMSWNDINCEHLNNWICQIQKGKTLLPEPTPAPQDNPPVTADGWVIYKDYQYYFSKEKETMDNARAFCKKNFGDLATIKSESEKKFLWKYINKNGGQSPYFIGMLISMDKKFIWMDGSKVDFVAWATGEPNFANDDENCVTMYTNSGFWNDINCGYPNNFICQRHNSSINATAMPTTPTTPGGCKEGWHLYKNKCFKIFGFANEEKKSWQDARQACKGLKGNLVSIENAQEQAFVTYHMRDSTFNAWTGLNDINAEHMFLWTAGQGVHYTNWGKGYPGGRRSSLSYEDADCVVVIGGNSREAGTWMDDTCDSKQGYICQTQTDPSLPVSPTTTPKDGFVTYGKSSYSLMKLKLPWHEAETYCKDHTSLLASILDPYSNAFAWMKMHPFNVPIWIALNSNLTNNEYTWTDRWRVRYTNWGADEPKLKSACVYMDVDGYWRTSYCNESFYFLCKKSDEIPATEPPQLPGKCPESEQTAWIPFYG
# Molecular target: T1, mouse CD206 extracellular domain fused …
# Experiment: immunostaining of cells or tissue; supernatant of HEK293FT cells with αCD206-mNeonGreen chromobody put on MetBo2 cells transiently expressing the CD206 ECD construct; 4 °C overnight in the dark; fluorescence microscopy (methods: fixed cells; legend: live cells)
# Details: partners not purified
binder,measurement,value
"αCD206-mNeonGreen chromobody (αCD206 VHH fused to mNeonGreen) (VHH, also called αCD206 chromobodies; αCD206 nanobody; source: HEK293FT, transiently transfected; cell-free culture supernatant used unpurified) VHH: QVQLQESGGGLVQPGGSLRLSCAASGNIFSINAIGWYRQAPGKQRELVATITLSGSTNYADSVKGRFSISRDNAKNTVYLQMNSLKPEDTAVYYCNANTYSDSDVYGYWGQGTQVTVSS",binding result,binds
